One test has as its target T1, TNF (human, UniProt P01375 77-233).
T1 construct: also called TNF (Strathmann hTNFa); hTNFa
The test is described as follows: SPR, Biacore 3000; sample captured by anti-human CH1 antibody, TNF as analyte.

Test [1] has as its target T2, human serum albumin (human, UniProt P02768 25-609).
T2 construct: Bought protein; also called HSA
The test can be described thus: SPR, Biacore 3000; construct captured by anti-human CH1 antibody, 50 nM HSA alone.
Protocol: (§1) Covalent immobilisation of the capture antibody was achieved by standard amine coupling chemistry.
(§2) After each cycle, the capture surface was regenerated with 2×1 min injections of 40 mM HCl followed by 30 s of 5 mM NaOH. The flow rates used were 10 μl/min for capture, 30 μl/min for association and dissociation phases, and 10 μl/min for regeneration.

Another test concerns the target T3, Ox40/mFc (UniProt P43489 29-214).
T3 construct: Bought fusion protein; also called Ox40/mFc (AXXORA 1588)
T3 sequence (looked up): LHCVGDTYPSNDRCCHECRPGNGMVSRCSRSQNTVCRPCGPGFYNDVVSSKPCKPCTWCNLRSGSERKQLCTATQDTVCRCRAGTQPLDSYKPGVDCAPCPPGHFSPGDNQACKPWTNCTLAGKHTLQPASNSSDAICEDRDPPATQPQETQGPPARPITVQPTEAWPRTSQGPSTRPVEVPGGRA
The test is described as follows: SPR, Biacore 3000; construct captured by anti-human CH1 antibody, 20 nM Ox40/mFc alone.

In test [2] the target is T2, human serum albumin. The test can be described thus: SPR, Biacore T100; sample captured by anti-human CH1 antibody, HSA as analyte.
Protocol: as §1, §2
A blank flow-cell was used for reference subtraction and buffer-blank injections were included to subtract instrument noise and drift.
Test [3] concerns the target T4, IL-6 (UniProt P05231 30-212, limits assumed). The test can be described thus: SPR, Biacore T100; sample captured by anti-human CH1 antibody, IL-6 as analyte.
Test [4] deals with T2, human serum albumin. The test can be described thus: SPR, Biacore T100; sample captured by anti-human CH1 antibody, HSA as analyte, 1:1 fit.
Protocol: as §1, §2
Kinetic parameters were determined by simultaneous global-fitting of the resulting sensorgrams to a standard 1:1 binding model using Biacore T100 Evaluation Software v2.0.1.
For test [5], the target named is T4, IL-6. The test is described as follows: SPR, Biacore T100; sample captured by anti-human CH1 antibody, IL-6 as analyte; kinetics not given.
The target of a further test is T5, IL13 (UniProt P35225 35-146, limits assumed).
T5 construct: also called IL13 (R&D 213IL)
The test can be described thus: SPR, Biacore 3000; sample captured by anti-human CH1 antibody, IL13 as analyte.

Protocol for IL13: as §1, §2
(§3) Kinetic parameters were determined by simultaneous global-fitting of the resulting sensorgrams to a standard 1:1 binding model using Biacore 3000 Evaluation Software v3.2
Protocol for Ox40/mFc: as §1, §2
Protocol for TNF: as §1, §2, §3

B1: A26Fab-(3xG4S)-645dsFv-(3xG4S)-870Fv (other)
heavy: EVQLVESGGGLVQPGGSLRLSCAASGFTFTNYGIHWIRQAPGKGLEWVASISPSGGLTYYRDSVKGRFTISRDDAKNSPYLQMNSLRAEDTAVYYCATGGEGIFDYWGQGTLVTVSSASTKGPSVFPLAPSSKSTSGGTAALGCLVKDYFPEPVTVSWNSGALTSGVHTFPAVLQSSGLYSLSSVVTVPSSSLGTQTYICNVNHKPSNTKVDKKVEPKSCSGGGGSGGGGSGGGGSEVQLLESGGGLVQPGGSLRLSCAVSGIDLSNYAINWVRQAPGKCLEWIGIIWASGTTFYATWAKGRFTISRDSTTVYLQMNSLRAEDTAVYYCARTVPGYSTAPYFDLWGQGTLVTVSSGGGGSGGGGSGGGGSEVQLVESGGGLVQPGGSLRLSCAASGYVFTDYGMNWVRQAPGKGLEWMGWINTYIGEPIYADSVKGRFTFSLDTSKSTAYLQMNSLRAEDTAVYYCARGYRSYAMDYWGQGTLVTVSS
light: DIQMTQSPSSLSASVGDRVTITCRATQSIYNALAWYQQKPGKAPKLLIYNANTLHTGVPSRFSASGSGTDSTLTISSLQPEDFATYYCQQYYDYPLTFGGGTKVEIKRTVAAPSVFIFPPSDEQLKSGTASVVCLLNNFYPREAKVQWKVDNALQSGNSQESVTEQDSKDSTYSLSSTLTLSKADYEKHKVYACEVTHQGLSSPVTKSFNRGECSGGGGSGGGGSGGGGSDIVMTQSPSSVSASVGDRVTITCQSSPSVWSNFLSWYQQKPGKAPKLLIYEASKLTSGVPSRFKGSGSGTDFTLTISSLQPEDFATYYCGGGYSSISDTTFGCGTKVEIKGGGGSGGGGSGGGGSDIQMTQSPSSLSASVGDRVTITCKASQNVGTNVAWYQQKPGKAPKALIYSASFLYSGVPYRFSGSGSGTDFTLTISSLQPEDFATYYCQQYNIYPLTFGQGTKVEIK
notes: Trispecific Fab-Fv-Fv (OX40, HSA, TNF); terminal 870 Fv without a disulfide (-DS read as Fv); HEK293 supernatant; also called A26-645-870-DS; A26Fab-645Fv-652/870Fv
For the molecule B1, the “Affinity (fold loss against the parent)” value with TNF amounted to 2 fold. The Stoichiometry with TNF was found to be 0.39. Further, the “Response RU” value in the test with human serum albumin [1] came to 11 RU; with Ox40/mFc, 31 RU.

B2: A26Fab 645Fv 1G4S 1189Fv (other)
heavy: EVQLVESGGGLVQPGGSLRLSCAASGFTFTNYGIHWIRQAPGKGLEWVASISPSGGLTYYRDSVKGRFTISRDDAKNSPYLQMNSLRAEDTAVYYCATGGEGIFDYWGQGTLVTVSSASTKGPSVFPLAPSSKSTSGGTAALGCLVKDYFPEPVTVSWNSGALTSGVHTFPAVLQSSGLYSLSSVVTVPSSSLGTQTYICNVNHKPSNTKVDKKVEPKSCSGGGGSGGGGSGGGGSEVQLLESGGGLVQPGGSLRLSCAVSGIDLSNYAINWVRQAPGKCLEWIGIIWASGTTFYATWAKGRFTISRDSTTVYLQMNSLRAEDTAVYYCARTVPGYSTAPYFDLWGQGTLVTVSSGGGGSEVQLVESGGGLVQPGGSLRLSCAASGFTFNDYDMAWVRQAPGKCLEWVASITPSGGGTYYRDSVKGRFTISRDNAKNSLYLQMNSLRAEDTAVYYCARHGYTLDYFEYWGQGTMVTVSS
light: DIQMTQSPSSLSASVGDRVTITCRATQSIYNALAWYQQKPGKAPKLLIYNANTLHTGVPSRFSASGSGTDSTLTISSLQPEDFATYYCQQYYDYPLTFGGGTKVEIKRTVAAPSVFIFPPSDEQLKSGTASVVCLLNNFYPREAKVQWKVDNALQSGNSQESVTEQDSKDSTYSLSSTLTLSKADYEKHKVYACEVTHQGLSSPVTKSFNRGECSGGGGSGGGGSGGGGSDIVMTQSPSSVSASVGDRVTITCQSSPSVWSNFLSWYQQKPGKAPKLLIYEASKLTSGVPSRFKGSGSGTDFTLTISSLQPEDFATYYCGGGYSSISDTTFGCGTKVEIKGGGGSDIQMTQSPSSLSASVGDRVTITCLASEGISNDLAWYQQKPGKAPKLLIYDATRLQDGVPSRFSGSGSGTDFTLTISSLQPEDFATYYCQQSYKYPWTFGCGTKLEIK
notes: Trispecific Fab-Fv-Fv (OX40, HSA, IL-6); second linker 1xG4S; HEK293 supernatant; also called A26Fab-645Fv-1189Fv; FabFvFv
Molecule B2 registered a Stoichiometry in the test with human serum albumin [2] of 0.39. Further, the Stoichiometry in the test with IL-6 [3] was determined as 0.06. In the test with human serum albumin [4], this molecule yielded a Kd of 0.0113 µM, a koff of 0.000379 s⁻¹ and a kon of 33400 M⁻¹ s⁻¹. Moreover, the RU of binding with IL-6 [5] was 1 RU.

B3: A26Fab-(3xG4S)-645dsFv-(3xG4S)-652dsFv (other)
heavy: EVQLVESGGGLVQPGGSLRLSCAASGFTFTNYGIHWIRQAPGKGLEWVASISPSGGLTYYRDSVKGRFTISRDDAKNSPYLQMNSLRAEDTAVYYCATGGEGIFDYWGQGTLVTVSSASTKGPSVFPLAPSSKSTSGGTAALGCLVKDYFPEPVTVSWNSGALTSGVHTFPAVLQSSGLYSLSSVVTVPSSSLGTQTYICNVNHKPSNTKVDKKVEPKSCSGGGGSGGGGSGGGGSEVQLLESGGGLVQPGGSLRLSCAVSGIDLSNYAINWVRQAPGKCLEWIGIIWASGTTFYATWAKGRFTISRDSTTVYLQMNSLRAEDTAVYYCARTVPGYSTAPYFDLWGQGTLVTVSSGGGGSGGGGSGGGGSQVTLKESGPVLVKPTETLTLTCTVSGFSLTNYHVQWIRQPPGKCLEWLGVMWSDGDTSFNSVLKSRLTISRDTSKSQVVLTMTNMDPVDTATYYCARDGTIAAMDYFDYWGQGTLVTVSS
light: DIQMTQSPSSLSASVGDRVTITCRATQSIYNALAWYQQKPGKAPKLLIYNANTLHTGVPSRFSASGSGTDSTLTISSLQPEDFATYYCQQYYDYPLTFGGGTKVEIKRTVAAPSVFIFPPSDEQLKSGTASVVCLLNNFYPREAKVQWKVDNALQSGNSQESVTEQDSKDSTYSLSSTLTLSKADYEKHKVYACEVTHQGLSSPVTKSFNRGECSGGGGSGGGGSGGGGSDIVMTQSPSSVSASVGDRVTITCQSSPSVWSNFLSWYQQKPGKAPKLLIYEASKLTSGVPSRFKGSGSGTDFTLTISSLQPEDFATYYCGGGYSSISDTTFGCGTKVEIKGGGGSGGGGSGGGGSDIQMTQSPSSLSASVGDRVTITCLASEDISNYLAWYQQKPGKAPKLLIYHTSRLQDGVPSRFSGSGSGTDFTLTISSLQPEDFATYYCQQGYRFPLTFGCGTKVEIKR
notes: Trispecific Fab-Fv-Fv (OX40, HSA, IL13); terminal 652 Fv with a disulfide (+DS read as dsFv); HEK293 supernatant; also called A26-645-652+DS; A26Fab-645Fv-652/870Fv
For B3, in the test with IL13, the “Affinity (fold loss against the parent)” value was found to be 2 fold and the Stoichiometry was 0.88. The “Response RU” value in the test with human serum albumin [1] was determined as 11 RU. Besides, the “Response RU” value in the test with Ox40/mFc was 39 RU.

B4: A26Fab-(3xG4S)-645dsFv-(3xG4S)-652Fv (other)
heavy: EVQLVESGGGLVQPGGSLRLSCAASGFTFTNYGIHWIRQAPGKGLEWVASISPSGGLTYYRDSVKGRFTISRDDAKNSPYLQMNSLRAEDTAVYYCATGGEGIFDYWGQGTLVTVSSASTKGPSVFPLAPSSKSTSGGTAALGCLVKDYFPEPVTVSWNSGALTSGVHTFPAVLQSSGLYSLSSVVTVPSSSLGTQTYICNVNHKPSNTKVDKKVEPKSCSGGGGSGGGGSGGGGSEVQLLESGGGLVQPGGSLRLSCAVSGIDLSNYAINWVRQAPGKCLEWIGIIWASGTTFYATWAKGRFTISRDSTTVYLQMNSLRAEDTAVYYCARTVPGYSTAPYFDLWGQGTLVTVSSGGGGSGGGGSGGGGSQVTLKESGPVLVKPTETLTLTCTVSGFSLTNYHVQWIRQPPGKALEWLGVMWSDGDTSFNSVLKSRLTISRDTSKSQVVLTMTNMDPVDTATYYCARDGTIAAMDYFDYWGQGTLVTVSS
light: DIQMTQSPSSLSASVGDRVTITCRATQSIYNALAWYQQKPGKAPKLLIYNANTLHTGVPSRFSASGSGTDSTLTISSLQPEDFATYYCQQYYDYPLTFGGGTKVEIKRTVAAPSVFIFPPSDEQLKSGTASVVCLLNNFYPREAKVQWKVDNALQSGNSQESVTEQDSKDSTYSLSSTLTLSKADYEKHKVYACEVTHQGLSSPVTKSFNRGECSGGGGSGGGGSGGGGSDIVMTQSPSSVSASVGDRVTITCQSSPSVWSNFLSWYQQKPGKAPKLLIYEASKLTSGVPSRFKGSGSGTDFTLTISSLQPEDFATYYCGGGYSSISDTTFGCGTKVEIKGGGGSGGGGSGGGGSDIQMTQSPSSLSASVGDRVTITCLASEDISNYLAWYQQKPGKAPKLLIYHTSRLQDGVPSRFSGSGSGTDFTLTISSLQPEDFATYYCQQGYRFPLTFGGGTKVEIK
notes: Trispecific Fab-Fv-Fv (OX40, HSA, IL13); terminal 652 Fv without a disulfide (-DS read as Fv); HEK293 supernatant; also called A26-645-652-DS; A26Fab-645Fv-652/870Fv
In turn, B4 registered a Stoichiometry with IL13 of 0.95. For the same molecule, the results for the “Response RU” value with human serum albumin [1] and in the test with Ox40/mFc were 12 RU and 42 RU, respectively.

Values taken from patent US20130053549A1 (UCB, published 2013).
